Measurements as given in the supplement of paper PMC10567573.

B1: KRT13 (parent)
chain: TPGIDLTRVLAEMREQYEAMAERN

Variants of: B1
Test: protein stability index of a GFP-peptide fusion (GPS, HEK-293T) (PSI 1-6); higher = more stable
Settings: c terminus: a fixed tail appended
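Also: lentivirally expressed fusions sorted by FACS into six bins by GFP to DsRed ratio, PSI derived from sequencing read proportions per bin multiplied by bin number.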

Variant | protein stability index
TPGIDLTRVLAEMREWYEAMAERN [Q16W] | 3.73
TPGIDLTRVLAEMRELYEAMAERN [Q16L] | 2.94
TPGIDLTRVLAEMREYYEAMAERN [Q16Y] | 4.01
TPGIDLTRVLAEMREHYEAMAERN [Q16H] | 3.31
TPGIDLTRVLAEMREKYEAMAERN [Q16K] | 4.78
TPGIDLTRVLAEMREDYEAMAERN [Q16D] | 4.61
TPGIDLTRVLAEMRETYEAMAERN [Q16T] | 3.39
TPGIDLTRVLAEMRESYEAMAERN [Q16S] | 3.17
TPGIDLTRVLAEMRECYEAMAERN [Q16C] | 4.57
TPGIDLTRVLAEMREVYEAMAERN [Q16V] | 3.82
TPGIDLTRVLAEMRENYEAMAERN [Q16N] | 3.8
TPGIDLTRVLAEMREIYEAMAERN [Q16I] | 3.38
TPGIDLTRVLAEMREFYEAMAERN [Q16F] | 3.21
TPGIDLTRVLAEMRERYEAMAERN [Q16R] | 4.84
TPGIDLTRVLAEMREEYEAMAERN [Q16E] | 3.97
TPGIDLTRVLAEMREPYEAMAERN [Q16P] | 4.08
TPGIDLTRVLAEMDEQYEAMAERN [R14D] | 5.07
TPGIDLTRVLAEMMEQYEAMAERN [R14M] | 3.69
TPGIDLTRVLAEMHEQYEAMAERN [R14H] | 3.61
TPGIDLTRVLAEMWEQYEAMAERN [R14W] | 4.01
TPGIDLTRVLAEMKEQYEAMAERN [R14K] | 3.69
TPGIDLTRVLAEMYEQYEAMAERN [R14Y] | 3.61
TPGIDLTRVLAEMVEQYEAMAERN [R14V] | 3.14
TPGIDLTRVLAEMTEQYEAMAERN [R14T] | 4.44

Variant | protein stability index
TPGIDLTRVLAEMLEQYEAMAERN [R14L] | 2.42
TPGIDLTRVLAEMNEQYEAMAERN [R14N] | 4.55
TPGIDLTRVLAEMEEQYEAMAERN [R14E] | 4.28
TPGIDLTRVLAEMQEQYEAMAERN [R14Q] | 4.46
TPGIDLTRVLAEMCEQYEAMAERN [R14C] | 3.04
TPGIDLTRVLAEMAEQYEAMAERN [R14A] | 2.08
TPGIDLTRVLAEMSEQYEAMAERN [R14S] | 3.74
TPGIDLTRVLAEMFEQYEAMAERN [R14F] | 3.65
TPGIDLTRVLAEMPEQYEAMAERN [R14P] | 4.42
TPGIDLTRVLAEMREQYELMAERN [A19L] | 2.92
TPGIDLTRVLAEMREQYEIMAERN [A19I] | 3.73
TPGIDLTRVLAEMREQYEKMAERN [A19K] | 3.53
TPGIDLTRVLAEMREQYEPMAERN [A19P] | 4.08
TPGIDLTRVLAEMREQYENMAERN [A19N] | 4.28
TPGIDLTRVLAEMREQYECMAERN [A19C] | 3.99
TPGIDLTRVLAEMREQYEDMAERN [A19D] | 4.08
TPGIDLTRVLAEMREQYEMMAERN [A19M] | 3.54
TPGIDLTRVLAEMREQYEGMAERN [A19G] | 4.22
TPGIDLTRVLAEMREQYEFMAERN [A19F] | 4.13
TPGIDLTRVLAEMREQYEQMAERN [A19Q] | 3.48
TPGIDLTRVLAEMREQYEHMAERN [A19H] | 3.71
TPGIDLTRVLAEMRSQYEAMAERN [E15S] | 3.61
TPGIDLTRVLAEMRPQYEAMAERN [E15P] | 3.83
TPGIDLTRVLAEMRMQYEAMAERN [E15M] | 2.91

Variant | protein stability index
TPGIDLTRVLAEMRVQYEAMAERN [E15V] | 2.24
TPGIDLTRVLAEMRFQYEAMAERN [E15F] | 3.26
TPGIDLTRVLAEMRCQYEAMAERN [E15C] | 3.34
TPGIDLTRVLAEMRLQYEAMAERN [E15L] | 3.04
TPGIDLTRVLAEMRQQYEAMAERN [E15Q] | 3.28
TPGIDLTRVLAEMRWQYEAMAERN [E15W] | 2.07
TPGIDLTRVLAEMRDQYEAMAERN [E15D] | 4.24
TPGIDLTRVLAEMRGQYEAMAERN [E15G] | 3.82
TPGIDLTRVLAEMRAQYEAMAERN [E15A] | 3.47
TPGIDLTRVLAEMRKQYEAMAERN [E15K] | 3.83
TPGIDLTRVLAEMRTQYEAMAERN [E15T] | 3.43
TPGIDLTRVLAEMRIQYEAMAERN [E15I] | 2.85
TPGIDLTRVLAEMRRQYEAMAERN [E15R] | 3.11
TPGIDLTRVLAEMRHQYEAMAERN [E15H] | 3.45
TPGIDLTRVLAEMRYQYEAMAERN [E15Y] | 2.42
TPGIDLTRVLAEMREQVEAMAERN [Y17V] | 4.29
TPGIDLTRVLAEMREQEEAMAERN [Y17E] | 4.6
TPGIDLTRVLAEMREQCEAMAERN [Y17C] | 4.23
TPGIDLTRVLAEMREQHEAMAERN [Y17H] | 4.76
TPGIDLTRVLAEMREQWEAMAERN [Y17W] | 5.02
TPGIDLTRVLAEMREQDEAMAERN [Y17D] | 5.4
TPGIDLTRVLAEMREQKEAMAERN [Y17K] | 5.5
TPGIDLTRVLAEMREQNEAMAERN [Y17N] | 4.56
TPGIDLTRVLAEMREQREAMAERN [Y17R] | 4.75

Variant | protein stability index
TPGIDLTRVLAEMREQAEAMAERN [Y17A] | 5.29
TPGIDLTRVLAEMREQMEAMAERN [Y17M] | 4.3
TPGIDLTRVLAEMREQGEAMAERN [Y17G] | 6
TPGIDLTRVLAEMREQTEAMAERN [Y17T] | 5.8
TPGIDLTRVLAEMREQYMAMAERN [E18M] | 3.72
TPGIDLTRVLAEMREQYQAMAERN [E18Q] | 3.13
TPGIDLTRVLAEMREQYVAMAERN [E18V] | 4.39
TPGIDLTRVLAEMREQYHAMAERN [E18H] | 3.44
TPGIDLTRVLAEMREQYDAMAERN [E18D] | 4.27
TPGIDLTRVLAEMREQYIAMAERN [E18I] | 3.98
TPGIDLTRVLAEMREQYNAMAERN [E18N] | 3.5
TPGIDLTRVLAEMREQYFAMAERN [E18F] | 2.84
TPGIDLTRVLAEMREQYPAMAERN [E18P] | 2.72
TPGIDLTRVLAEMREQYKAMAERN [E18K] | 3.84
TPGIDLTRVLAEMREQYSAMAERN [E18S] | 3.96
TPGIDLTRVLAEMREQYAAMAERN [E18A] | 4.23
TPGIDLTRVLAEMREQYGAMAERN [E18G] | 3.88
TPGIDLTRVLAEMREQYYAMAERN [E18Y] | 3.87
TPGIDLTRVLAEMREQYCAMAERN [E18C] | 2.93
TPGIDLTRVLAEMREQYWAMAERN [E18W] | 3.62
TPGIDLTRVLAEMREQYTAMAERN [E18T] | 3.06
TPGIDLTRVLAEMREQYRAMAERN [E18R] | 3.47
